Literature values in publication PMC6704176.

Molecular target: SRSRY (uPAR-derived peptide) (Homo sapiens)

Kd: 30 nM
Substance: FPR1 (from UniProt P21462)
